PMC314469, “Protein Interaction Networks by Proteome Peptide Scanning” (PLoS Biology, 2004)

T1: Abp1 SH3 (ABP1_YEAST), P15891
T1 chain: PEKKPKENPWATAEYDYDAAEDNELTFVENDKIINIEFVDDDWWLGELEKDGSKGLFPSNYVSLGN


Target: T1, Abp1 SH3 (ABP1_YEAST), P15891
Assay: SPOT array

Binder	normalised SPOT signal, Boehringer light units (BLU); mean over the file's lines of this peptide
KKPKLNKRVLPSKP [YLR183C 347-360]	128
KAEMKAGTTAPPKP [YLR234W 517-530]	211
KGFRFNLPPTDRP [YGR202C 91-103]	166
ITELISGYMLPLRP [YJL212C 542-555]	149
KGVRNIMIPFPNRP [YOR093C 1313-1326]	273
ISLDSPIPENIKP [YNL102W 567-579]	95.3
IVFKNVSFTYPTRP [YLR188W 432-445]	87
ISNLGGKSIDPHKP [YNL212W 461-474]	91.3
KDPANISMILPSKP [YBR260C 525-538]	112
KARHVLYPKGVKP [YDR463W 278-290]	174
ITSYAVSPYAQKP [YJL166W 24-36]	90.7
KDDKAMEPPNEKP [YDL193W 7-19]	118
ISMIPRYPVTSRP [YDL056W 329-341]	2470
KELSRLTYYGPEKP [YLR305C 1008-1021]	116
KKPASKAPAEKKP [YBL002W 7-19]	174
KHKQHKPKVKPSKP [YHL007C 233-246]	13.3
IQESMKHPKHFRP [YKL146W 503-515]	822
KDIPVKSDDTPAKP [YGL009C 527-540]	75.1
IRGFKSKPGTAKP [YDR409W 265-277]	434
KKHNSWVPKWLKP [YFL034W 914-926]	194

Binder	normalised SPOT signal, Boehringer light units (BLU); mean over the file's lines of this peptide
KETVTKQPTEEKP [YNL110C 11-23]	94.1
KHSTDEKPNFTKP [YLR087C 2329-2341]	125
KKKSSPATKVPSKP [YGL207W 456-469]	65
KAGGPRAPQGPRP [YJL008C 549-561]	209
KILDLKFPPKERP [YKL211C 326-338]	257
KKLLLKGYIPPYKP [YMR104C 605-618]	95.9
IPTRENTPSAFKP [YDL231C 441-453]	204
KHAAKIDLVEPVKP [YBR261C 84-97]	121
ISKWTIMPHPNRP [YOL008W 136-148]	1030
KDSPSFLPGQQRP [YNL167C 92-104]	71.8
ITKILRIIGFPSRP [YNL247W 569-582]	43.2
ISSQIAQPYEDRP [YDR280W 60-72]	43.3
KKISFNPVVTPIRP [YFR023W 33-46]	0
KFSSDNDPLQYRP [YBR033W 108-120]	71.3
KKIEAKKATRPSKP [YNL173C 323-336]	80
KIGLIQFQISPPKP [YDL143W 233-246]	40.5
KELKWADPRSFKP [YOR168W 156-168]	378
KSEPELYPNGIKP [YBR058C 403-415]	13.7
IYLTKLFMEWPFKP [YMR228W 312-325]	118
KKLSSSMPNSPKKP [YDL117W 113-126]	153

Binder	normalised SPOT signal, Boehringer light units (BLU); mean over the file's lines of this peptide
ISGVYYSNWSPYKP [YDR371W 74-87]	91.7
KDPKSFPPPPLKP [YBR108W 81-93]	1320
KKIKKKSPTGMKP [YOL075C 641-653]	120
KGPDVEFLMIPFRP [YOR188W 88-101]	114
KDVQPFIPKSLRP [YGR175C 289-301]	2320
KIQELYLPHMSRP [YMR131C 92-104]	166
IRRYLRVPNELKP [YJL004C 4-16]	105
KGMENELPFMKRP [YIL077C 15-27]	332
ISRWVNFPWDAKP [YIL085C 295-307]	172
KEYTRFNQIFPKKP [YDR182W 159-172]	54
KKEYSETFYHPYKP [YPL008W 3-16]	109
KIEGSIPENEPSKP [YHR102W 306-319]	97.5
ISPVIIPLGNPKRP [YGR177C 149-162]	90.9
IRPDGRLPHQFRP [YDL111C 21-33]	1260
KFMSAIKPANQKP [YAL024C 394-406]	2680
KGIIMDAKFHPFKP [YMR049C 639-652]	898
KEKKVTFDIEPYKP [YBR143C 103-116]	63.6
IYDVIEVVPEPGKP [YDR301W 1056-1069]	80.4
